Reference: patent publication US20230121197A1, “ANTIBODIES SPECIFICALLY BINDING THE CARBOXYMETHYLATED CATALYTIC SUBUNIT OF PROTEIN PHOSPHATASE 2A” (Medizinische Universität Wien, priority 2020, published 2023)
No end group written: not given here.

T1: PP6c C-terminal peptide L305, ac-IPPRTTTPYFL (non-methylated) (human)
T1 construct: also called PP6 L305
T1 peptide: Ac-IPPRTTTPYFL

T2: PP6c C-terminal peptide meL305, ac-IPPRTTTPYFL-CH3 (α-carboxymethylated) (human, SMILES …)
T2 construct: also called PP6 meLeu305
T2 peptide: Ac-IPPRTTTPYFL-OMe

B1: 7C10-C5 monoclonal antibody (antibody, V domains shown)
VH: DVQLQESGPGLVKPSQSLSLTCSVTGYSITSGYYWNWIRQFPGNKLEWMGYISYDGSNNYNPSLKNRISITRDTSKNQFFLKLNSVTTEDTATYYCAGRFAYWGQGTLVTVSA
VL: DVLMTQTPLSLPVSLGDQASISCRSSQSIVHSNGNTYLEWYLQKPGQSPKLLIYKVSNRFSGVPDRFSGSGSGTDFTLKINRVEAEDLGVYYCFQGSHVPWTFGGGTKLEIK
notes: Used as hybridoma culture supernatant (ELISA, Western blot, IHC) or at 50 µg/mL (SPR); also called 7C10 X63; clone 7C10-C5
B2: 7C10-C5: α-carboxymethylation specific mouse monoclonal IgG1 antibody from single clone hybridoma 7C10-C5 (DSM ACC3350) (antibody)
heavy: MYRMQLLSCIALSLALVTNSDVQLQESGPGLVKPSQSLSLTCSVTGYSITSGYYWNWIRQFPGNKLEWMGYISYDGSNNYNPSLKNRISITRDTSKNQFFLKLNSVTTEDTATYYCAGRFAYWGQGTLVTVSAAKTTAPSVYPLAPVCGDTTGSSVTLGCLVKGYFPEPVTLTWNSGSLSSGVHTFPAVLQSDLYTLSSSVTVTSSTWPSQSITCNVAHPASSTKVDKKIEPRGPTIKPCPPCKCPAPNLLGGPSVFIFPPKIKDVLMISLSPIVTCVVVDVSEDDPDVQISWFVNNVEVHTAQTQTHREDYNSTLRVVSALPIQHQDWMSGKEFKCKVNNKDLPAPIERTISKPKGSVRAPQVYVLPPPEEEMTKKQVTLTCMVTDFMPEDIYVEWTNNGKTELNYKNTEPVLDSDGSYFMYSKLRVEKKNWVERNSYSCSVVHEGLHNHHTTKSFSRTPGK
light: MDMRVPAQLLGLLLLWLSGARCDVLMTQTPLSLPVSLGDQASISCRSSQSIVHSNGNTYLEWYLQKPGQSPKLLIYKVSNRFSGVPDRFSGSGSGTDFTLKINRVEAEDLGVYYCFQGSHVPWTFGGGTKLEIKADAAPTVSIFPPSSEQLTSGGASVVCFLNNFYPKDINVKWKIDGSERQNGVLNSWTDQDSKDSTYSMSSTLTLTKDEYERHNSYTCEATHKTSTSPIVKSFNRNEC
modifications: Amino acid sequence of the recombinant 7C10-C5 heavy chain; Amino acid sequence of the recombinant 7C10-C5 light chain

Columns and labels:
[1] = target: T3, HA-tagged yeast PP2Ac (PPH21) (Saccharomyces cerevisiae, UniProt P23594); test: Western blot of yeast BY4741 strain lysates (wt, ppe1Δ, ppm1Δ, NaOH); format: binding
T3 construct: expressed in transfected cells; host or cells: yeast BY4741 (wildtype, ppe1Δ, ppm1Δ)
Description: Yeast strain BY4741 expressing HA-tagged yeast PP2Ac (PPH21) was used as a background. Of note, the 6 C-terminal amino acids of mammalian/human PP2Ac are identical to the yeast PP2A catalytic subunit PPH21. The BY4741 wildtype (WT) strain contained carboxymethylated PP2Ac and non-carboxymethylated PP2Ac. The BY4741 ppe1Δ strain contained high levels of carboxymethylated PP2Ac because the ppe1 gene was deleted. The BY4741 ppm1Δ strain lacked carboxymethylated PP2Ac because the ppm1 gene was deleted. Said yeast strains were further used for the characterization of monoclonal antibodies, i.e. 7C10-C5, as described further below. […]
Yeast cells were grown at 30° C. to exponential growth phase in drop-out complete medium (2.3 g/l Bacto yeast nitrogen base [Difco, 233520], 20 mg/l adenine, 20 mg/l L-arginine, 15 mg/l L-tyrosine, 15 mg/l L-isoleucine, 25 mg/l L-phenylalanine, 50 mg/l L-glutamic acid, 50 mg/l L-aspartic acid, 100 mg/l L-threonine, 200 mg/l L-serine, 75 mg/l L-valine, 75 mg/l L-methionine, 90 mg/l L-lysine, 20 mg/l uracil, 30 mg/l L-histidine, 0.05 M ammoniumsulfate) lacking L-leucine and containing 2% w/v glucose. Yeast cells were collected by centrifugation at 3,500 rpm at 4° C. in a Beckmann GS-6R centrifuge, washed with ice-cold water and the optical density at 600 nm (0D^600) was measured in a Hitachi U-2000 spectrophotometer. […]

[2] = target: T1, PP6c C-terminal peptide L305, …; test: ELISA, values normalized to meL309, Neg = TBS only, N=7
Description: (§1) FIG. 9: Monoclonal antibody 7C10-C5 detects α-carboxymethylated PP2Ac C-terminal peptides with >10-fold higher signal intensity than the α-carboxymethylated PP4c and PP6c C-terminal peptides in ELISA. Nunc Medisorp 96-well ELISA flat-bottom plates were coated with PP2Ac peptides L309 (ac-[…]) (SEQ ID NO:18), meL309 (ac-[…]-CH3) (SEQ ID NO:18), PP4c peptides L307 (ac-[…]) (SEQ ID NO:20), meL307 (ac-[…]-CH₃) (SEQ ID NO:20), PP6c peptides L305 (ac-[…]) (SEQ ID NO:22) or meL305 (ac-[…]-CH₃) (SEQ ID NO:22) at 2 μg/ml in TBS or TBS only (Neg) at 4° C. over-night. After washing once with TBS, the wells were incubated with 2% BSA in TBS for 1 h at RT. After washing once with TBS, the wells were incubated with single clone hybridoma cell culture supernatant, clone 7C10-C5 1:50 for 1 h at RT. After washing twice with TBS, wells were incubated with anti-mouse and anti rabbit HRP-coupled secondary antibody for 1 h at RT, followed by washing 3× in PBS. Bound antibodies were detected by colorimetric reaction with 3,3′,5,5′-Tetramethylbenzidine as substrate, and absorbance was measured at 450 nm. Values were normalized to meL309 which was set to 1. Average and standard deviation of N=7 experiments are shown. […] Statistical significance was assessed using ANOVA followed by Tukey's HSD as a post-hoc test. […]

[3] = target: T2, PP6c C-terminal peptide meL305, …; test: as above
Description: as §1

[4] = target: PP2Ac C-terminal peptide pY307-meL309, ac-HVTRRTPDpYFL-CH3 (human); test: ELISA, 4-fold dilution series of coated peptide, hybridoma supernatant 1:50, normalized

T3 sequence (P23594 whole entry): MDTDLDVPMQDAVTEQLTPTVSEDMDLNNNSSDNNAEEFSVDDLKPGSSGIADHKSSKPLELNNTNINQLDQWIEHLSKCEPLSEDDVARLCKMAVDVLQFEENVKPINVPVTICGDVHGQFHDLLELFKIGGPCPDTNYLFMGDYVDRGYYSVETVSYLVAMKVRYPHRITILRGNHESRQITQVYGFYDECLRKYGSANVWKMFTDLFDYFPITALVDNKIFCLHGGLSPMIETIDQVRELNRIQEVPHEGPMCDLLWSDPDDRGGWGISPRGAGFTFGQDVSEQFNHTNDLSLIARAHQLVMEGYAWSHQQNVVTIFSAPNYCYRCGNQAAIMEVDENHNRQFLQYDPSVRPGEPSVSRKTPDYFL

Molecule | detection of PP2Ac in ppe1Δ (carboxymethylated) versus ppm1Δ / NaOH treated (non-carboxymethylated) lysates [1] | binding result [2] | binding result [3] | EC50 (read off the curve) [4] [mg/L]
B1 | detected PP2Ac only in the BY4741 ppe1Δ strain | no binding | no binding | 0.3
B2 | only detected carboxymethylated PP2Ac |  |  | 
